In patent US20200338146A1:

What was measured:
[1] = target: AAV2.5T.LSV1 virion expressing GFP (AAV2.5T.LSV1-CMV-GFP); assay: cell-based or functional assay
[2] = target: AAV2 virion expressing GFP (AAV2-CMV-GFP) (AAV2) (UniProt P03135); assay: cell-based or functional assay

Substance: pooled human IgG antibodies (Gammagard IVIG)
- IC50 of inhibition of GFP expression in transduced 293T cells (reciprocal dilution of the pooled human IgG antibody sample at which GFP expression is reduced by 50%) (reciprocal dilution) [1]: 9.3
- IC50 of inhibition of GFP expression in transduced 293T cells (reciprocal dilution of the pooled human IgG antibody sample at which GFP expression is reduced by 50%) (reciprocal dilution) [2]: 104
